Experimental data from the DeepSol protein solubility set.

test: soluble on expression in E. coli; label from the status in PepcDB or PDB records

Row | Sequence | soluble on expression in E. coli
1 | MGSDKIHHHHHHSEDTMDRINKDHDHTTSVASRFILADVITSTAFSNASGDINTYASSYIEYEVGVDNQLYYAEVRENEPSSSSTFNNSWNGIYSSLKNARIIIDQCGEGGRDHGNDVTRGMAEVMAAYNCALIADFFGDAPCSQAALVDEKGSPVYMTPKMDTQQEIYTQIISYLDDAIANLQKEDLADVTEQDFLYAGDADKWLKFAYGLKARYTMRLINRSSNKSADYEKVLDYVSKSFTSADDQAAFDIYDSNNINPFYGFYNSRAGFGASTSLGTKLLAYNDPRANRAFFTPIVDKKRSQVAANDPSLVPAPNGSPDQSTSKYGISAFVYAKTAPTLLMSYHELMFLKAEALCRLNRDAEDALKEAVVAGLLNAENSISIAIKELGSGLNTNSSEVITETSAGKYFDDVVKAKYAANPLQETMIQKYLAMWGASGEATETYNDFRRMKGLNENFITLTNPNNSSKFPLRYPYGNSDTAANPEVKAAYGNGDYVYSEPVWWAGGSR | not soluble
2 | MSLLVQFDEFKGHSHEQFMEELDTIMLVSINKLHDNMDLRRRLLIYSVFGKVFQHRKMGILAPHGQEETF | not soluble
3 | MQRARCYLIGETAVVLELEPPVTLASQKRIWRLAQRLVDMPNVVEAIPGMNNITVILRNPESLALDAIERLQRWWEESEALEPESRFIEIPVVYGGAGGPDLAVVAAHCGLSEKQVVELHSSVEYVVWFLGFQPGFPYLGSLPEQLHTPRRAEPRLLVPAGSVGIGGPQTGVYPLATPGGWQLIGHTSLSLFDPARDEPILLRPGDSVRFVPQKEGVC | soluble
4 | MSLVTLADANPAQLAPFAGGAFEVAPLDVADEAALTVFLTRQDIVVSACPYFLNKTIARVAVATGTHYFDLTEDVETTAFIKALGETADVALVPQCGLAPGFICILGADMAARFERVKSVKMRVGALPLYPTNALSYNVTWSVDGLINEYCNPCEIVFEGRPTLVPALEGLEHVMIDGVSYEAFNTSGGLGTLTETLDGRVSDLSYKTLRYPGHAEIMKLLLRGLELADDRETLRRILNRAAPFTRKDVVVVFVEGHHHHHH | not soluble
5 | MESALQKAAGEGMDEFIQVFTDKYKEIIGGELTADTMPLLTGEQHSLLAYQIFRDEIMFGGFCQLIQNGYGGYIFDNPFAKVMRLWGAEEFSKLVYKAKKIYDANRKDLEKERTDDEFMAMYEQYEAFDDLEEAYLDMEEQVTTLVASYVDNHLELFAKIIK | not soluble
6 | KWFRIDHVQEAHDAGVAVEDLFTRQIKVNHVVTGSDLVIDIHHTLGLEIIVSRIERDGQQTLPTASSRIHMGDVLSVVGTAEELDKAAHVLGDLLPGDPFHGHDLDYRRIFVSNQDLVGIPLAKLRPRLSGILITRVRRGDHDHVATPETVLQLGDRVRVVAAHDRMKSVTALFGDSYRRLSD | not soluble
7 | MHESVTANIENVKKVAHHIQKLTSIVPEIGIICGSGLGKLADGVKDKITIPYTKIPNFPQTSVVGHSGNLIFGTLSGRKVVVMQGRFHMYEGYSNDTVALPIRVMKLLGVKILMVSNAAGGLNRSLKLGDFVILKDHIYLPGLGLNNILVGPNQEAFGTRFPALSNAYDRDLRKLAVQVAEENGFGNLVHQGVYVMNGGPCYETPAECTMLLNMGCDVVGMSTIPEVVIARHCGIQVFAVSLVTNISVLDVESDLKPNHEEVLATGAQRAELMQSWFEKIIEKLPKD | soluble
8 | MGSSHHHHHHSSGLVPRSHMEQLEEDCVHRYGVNAFVLYRLPVVKEGMVVGIVGPNGTGKSTAVKILAGQLIPNLCGDNDSWDGVIRAFRGNELQNYFEKLKNGEIRPVVKPQYVDLIPKAVKGKVIELLKKADETGKLEEVVKALELENVLEREIQHLSGGELQRVAIAAALLRNATFYFFDEPSSYLDIRQRLNAARAIRRLSEEGKSVLVVEHDLAVLDYLSDIIHVVYGEPGVYGIFSQPKGTRNGINEFLRGYLKDENVRFRPYEIKFTKTGERVEIERETLVTYPRLVKDYGSFRLEVEPGEIKKGEVIGIVGPNGIGKTTFVKMLAGVEEPTEGKIEWDLTVAYKPQYIKADYEGTVYELLSKIDASKLNSNFYKTELLKPLGIIDLYDREVNELSGGELQRVAIAATLLRDADIYLLDEPSAYLDVEQRLAVSRAIRHLMEKNEKTALVVEHDVLMIDYVSDRLMVFEGEPGKYGRALPPMGMREGMNRFLASIGITFRRDPDTGRPRANKEGSVKDREQKEKGEYYYIA | soluble
9 | GLDVAISQNGFFRLVDSNGSVFYSRNGQFKLDENRNLVNMQGMQLTGYPATGTPPTIQQGANPAPITIPNTLMAAKSTTTASMQINLNSTDPVPSKTPFSVSDADSYNKKGTVTVYDSQGNAHDMNVYFVKTKDNEWAVYTHDSSDPAATAPTTASTTLKFNENGILESGGTVNITTGTINGATAATFSLSFLNSMQQNTGANNIVATNQNGYKPGDLVSYQINNDGTVVGNYSNEQEQVLGQIVLANFANNEGLASQGDNVWAATQASGVALLGTAGSGNFGKLTNGALEASNVDLSK | soluble
10 | MGSDKIHHHHHHMNELTEFNARNDLDNELASTVSDILAKAIKEKGKASIAVSGGSTPKGFFSVLSQSDIDWSKVTITLADERWVPIDSEASNTRLVHENLLQNKAEKAKFFHLKQGDELTDETLEDLNVAASKILLPLDVLILGMGEDGHTASLFPCSDQITSGLDETNDAALLKVQPKTAPHQRISFTFASLMTSKNIFLHSCGEGKKTVLTQVLNGDDPFEMPIRAFLQHPSLNTQIFWAP | not soluble
11 | MSLRHFFGAFLLGMATLTVMPTEQVLAGTLTGQPPIVIGHRGASGYRPEHTLAAYELAIQMGADYIEPDLVATKDGVLVARHENALAILNADGTLNLTDTSTDVFERLQFADRKTTKVIDGRSITGWFTEDFTLAELKTLRAIERIPGIRPQNTQYDRQFEIPTLQEVIDLAKAQSAALGRTIGIYPETKHPTYFDSIGLSMEEILVSVLNANGYVDESAPVYIQSFEVSNLKDLNRLTNVSLVQLISPSGRPYDFVVNGDSRLYRDLITPLGLAEIATYANGIGANKNLIIPRDGRGNLLSPTTLVDDAHAAGLIVHAWTFRNEDVFLPTNLQGNPQEEYKRFYQTGIDGLFSDNPDTAFAVRSTLVPEPGTIFGLGFVPLLGWLFRRRKEGHHHHHH | not soluble
12 | MSLMQEETFYSVRMRASMNGSHEDGGKHISGGERLIPFHEMKHTVNALLEKGLSHSRGKPDFMQIQFEEVHESIKTIQPLPVHTNEVSCPEEGQKLARLLLEKEGVSRDVIEKAYEQIPEWSDVRGAVLFDIHTGKRMDQTKEKGVRVSRMDWPDANFEKWALHSHVPAHSRIKEALALASKVSRHPAVVAELCWSDDPDYITGYVAGKKMGYQRITAMKEYGTEEGCRVFFIDGSNDVNTYIHDLEKQPILIEWEEDHDSEGHHHHHH | soluble
13 | SLVVNRSWMRCWSITALRADHSVKICLIDETGAGDGALSVLAARWGLEHDEDNLMALVLTPEHLELRKRDEPKLGGIFVDFVGGAMAHRRKFGGGRGEAVAKAVGIKGDYLPDVVDATAGLGRDAFVLASVGCRVRMLERNPVVAALLDDGLARGYADAEIGGWLQERLQLIHASSLTALTDITPRPQVVYLDPMFPHKQKSALVKKEMRVFQSLVGPDLDADGLLEPARLLATKRVVVKRPDYAPPLANVATPNAVVTKGHRFDIYAGTPV | soluble
14 | MLCLGIEGTAEKTGVGIVDEAGNVLSLRGKPLIPEKGGIHPREAAEHHAKWIPRLIAEACRDAGVELGEIGLISFSRGPGLGPALRTVATAARTLALSLDVPIVGVNHCIGHIEIGRLTTGASDPVSLYVSGGNTQVIAFNEGRYRVFGETLDIAVGNMLDQFARESGLGHPGGPVIEQLALKASEYIELPYSVKGMDISFSGLLTAALRKMEAGASLEDLAYSIQETAFSMLVEVTERALAYTEKNQVLLCGGVAVNRRLRDMLREMCQEHHVEFHMPPPEYCGDNGAMIAWLGQLVYKYRGPDALEDTTVVQRYRTDEVDVPWMRESEAGIELPPDILAKGAEANIYRGQWIGRPCIIKERISKGYRIPEIDQKLRSSRTRREARLINQAKGAGVHTPVLFDVDPDGGVMVMEEVRGTPFRDAVEDTELCSRIGEAIGRLHHAGIIHGDLTGSNIIIRGGDVVFIDFGLGRFSDEIEDMGVDLLVLKKSLESTHYALAGECFSRVLEGYGKIIDADIQSKIREIESRGRYTD | soluble
15 | MGSDKIHHHHHHNFDDLLQLLEIHSRVFDVTPPSTGTVGSMRYLEYNGHVLANVEDLYILDNNKLPSPGVPVETLKLFGVDYIQTGDGVKIITCRVNSIEEIGKTVVVNFEGEKNFDVEQTQNSVRIIAKDWLLFRGVVKMPEEVLYEKENVRIERTAESDGQFRILLSAESVGKYVVKPFGERVDPYEKDVVFLVGYGDGRIIVRSFSKDLNGLDLPAYSESLKLARKIANELGYKLEECPVYDIPVGVIGMIVLLKGKDEMPVFLNTVERLMAE | not soluble
16 | MSVQNGFTAKIIRFVPHFVALRLSWTHNDLKAEGLEQFVEECLPAIRENNPQVKYFLQRSYTTCDPFVVGEYSWLRHRKKRVNWKSKEQVLSMIEEMSIGGDYREGYKRGVNRRLPRGQELWDTETMGHDVFHVTSKWKADIPEEDELPITAKTHPNFTYRKY | not soluble
17 | SLIFGKIDYINLLPLHIYLKKYPLPNGYKASMEYKKGVPSKLNKDLFYRRIDAAIISSIESARKKYKNLDLGICANKRVLSVLVEKNTSNAKDPSSATSNALAKVLKQDGKVIIGDKALKLYLKDPSKYIDLCAKWHEKTGLPFVFARFSCVQKKALYKQILKKFPKTKIKIPYYILQKYAKTRDLDVKDVRYYLDEVIYHKISTKEKTALKRFVKACKALNLA | soluble
18 | MAAEKTLRTCEKGHEYYKSSDCPTCPTCEKERTPQEGFLSLLSAPARRALEHHGIHTVEELSKYSEKEILKLHGMGPASLPKLRKALEESGLSFK | not soluble
19 | MKLVDALGKPCPIPVIETKKALAELGLAGGTIEVLVDNEVAIENLKKLATKKQATLTAKQIEATVFSVKITVPEEATQQTSQSATDLVITIGSDQLGTGDEQLGRLLMKSYLQSLSEAETVPTQLLFFNRGAFLTNQAANTLADLQQLAEKGTTIQTCGACLDFYHLTDTLAIGSITNMYEIVETMNQAAKVITLLEHHHHHH | soluble
20 | MGSDKIHHHHHHMPIITSYITQDDGTTTVVISGVELGNKETLLLDNGFDVEVDVSVIDPFQITGKQRRKIFALVKDIEEHTGQPMDYMRHMFIEFVRTYYGYDERISLSNCTRTQASQIIEATLDWTFYNDIPLSYKTSNLLKQDKSFLYWSTVNRNCVICGKPHADLAHYEAVGRGMNRNKMNHYDKHVLALCREHHNEQHAIGVKSFDDKYHLHDSWIKVDERLNKMLKGEKKE | not soluble
21 | MALPLLPGNSFNRNVGKEKFHKSQHWGFCNNVMMLVSDEKPGIGGEPLLGQKIKPKCSIYPKGDGSDVPSWVAFDKQVLSFDAYLEEEVLDKSQTNYRIRYYKIYFYPEDDTIQVNEPEVKNSGLLQGTSIRRHRITLPPPDEDQFYTVYHFNVGTEVVFYGRTFKIYDCDAFTRNFLRKIGVKVNPPVQCPEDPYMKIRREVVEHVEPLRPYESLDTLKQFLQYHGKILCFFCLWDDSVSMFGDRRELILHYFLCDDTIEIKELLPHSSGRDALKMFLRRSKLPKNCPPRVYQPGQITDRAVLNSYGDFIKNQADGYLFDRYKLGKVDQEFYKDSDLSLGVTINVWGRKVLLYDCDEFTKSYYKSKYGIENFTSVSCKPPSPPPKIERKFPPYNGFGSEEDSLRNCIDLKPTPHRRNFKKFMEKDSYGSKSNILRFFAKLVTDKCVDLDRMFVISYYLGDDTISVFEPIERNSGIAGGMFLKRSRVKKPGQEVFKSELSEYIKAEELYIGVTVNVNGYLFRLLNADEYTLNYMEQNTDKYPFSNLKLALQKLKQEEGKSRELKQVFKAADSKHTNMVDYNTFRDILMSLTVGNLAEQEFVTIARHYRVPEGTCSDMDFLIALAHEKFKKNMFENFDTFIYSCVYEDREKKNVLPTKDIKRLCKSSRLPLSDDLLESLLSRFEDSEKQIDYKSFFSALNWRKNPVPELQPASYLKERCEDVWLGMPSPIPAKYIDYWTFLKDAFGLEEE | soluble
